Laboratory results from US20250264470A1 (RHODE ISLAND HOSPITAL, published 2025).

Biological target: T1, NPVEDS peptide (LRC1 epitope, residues 286-291 of ASPH) (human)
T1 peptide: NPVEDS
Assay: peptide inhibition (data not shown)

- binding result: binds
B1: LRC1 monoclonal antibody (antibody, V domains shown)
VH: EVQLVESGGGLVKPGGSLKFSCAASGFTFSRYAMPWVRQTPEKRLEWVATISSGGSYTYYPDSVKGRLTISRDNAKNTLYLQMSSLRSEDTAMYYCARQGNYYGSSHLYYAMDYWGQGTSVTVSS
VL: QLVLTQSSSASFSLGASAKLTCTLNSQHRAYTIEWYQQQPLKPPKYVMELKKDGSHSTGDGIPDRFSGSSSGADRYLSISNIQPEDEAIYICGVGDTIKEQFVYVFGGGTKVTVL
notes: also called LRC1 mAb; LRC1 antibody
